PMC10397247

Assays:
P9bH1 = biological target: T1, P9bH1; assay: two-hybrid library CCNG1;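 also: natural log of median RNA to DNA barcode read ratio; higher means stronger binding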
T1 chain: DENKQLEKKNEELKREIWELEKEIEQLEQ

P4bH1 = biological target: T2, P4bH1; assay: two-hybrid library CCNG1;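 also: natural log of median RNA to DNA barcode read ratio; higher means stronger binding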
T2 chain: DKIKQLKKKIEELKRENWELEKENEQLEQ

P2bH1 = biological target: T3, P2bH1; assay: two-hybrid library CCNG1;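 also: natural log of median RNA to DNA barcode read ratio; higher means stronger binding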
T3 chain: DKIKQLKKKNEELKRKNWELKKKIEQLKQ

P6bH1 = biological target: T4, P6bH1; assay: two-hybrid library CCNG1;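 also: natural log of median RNA to DNA barcode read ratio; higher means stronger binding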
T4 chain: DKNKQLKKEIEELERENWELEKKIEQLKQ

P8bH1 = biological target: T5, P8bH1; assay: two-hybrid library CCNG1;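 also: natural log of median RNA to DNA barcode read ratio; higher means stronger binding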
T5 chain: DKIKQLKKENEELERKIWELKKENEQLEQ

P3bH1 = biological target: T6, P3bH1; assay: two-hybrid library CCNG1;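 also: natural log of median RNA to DNA barcode read ratio; higher means stronger binding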
T6 chain: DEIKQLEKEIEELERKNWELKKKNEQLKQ

P7bH1 = biological target: T7, P7bH1; assay: two-hybrid library CCNG1
T7 chain: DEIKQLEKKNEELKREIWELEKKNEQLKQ

P5bH1 = biological target: T8, P5bH1; assay: two-hybrid library CCNG1
T8 chain: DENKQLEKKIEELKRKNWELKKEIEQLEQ

4H458-AA = biological target: T9, 4H458-AA; assay: two-hybrid library CCmax; settings: mean of both orientations
T9 chain: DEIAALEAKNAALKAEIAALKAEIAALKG

4H2725-AA = biological target: T10, 4H2725-AA; assay: two-hybrid library CCmax; settings: mean of both orientations
T10 chain: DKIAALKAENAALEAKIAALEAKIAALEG

4H2109-AA = biological target: T11, 4H2109-AA; assay: two-hybrid library CCmax; settings: mean of both orientations
T11 chain: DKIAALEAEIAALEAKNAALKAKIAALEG

4H745-AA = biological target: T12, 4H745-AA; assay: two-hybrid library CCmax; settings: mean of both orientations
T12 chain: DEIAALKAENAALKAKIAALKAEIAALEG

4H3165-AA = biological target: T13, 4H3165-AA; assay: two-hybrid library CCmax; settings: mean of both orientations
T13 chain: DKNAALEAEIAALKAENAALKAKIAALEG

4H3697-AA = biological target: T14, 4H3697-AA; assay: two-hybrid library CCmax; settings: mean of both orientations
T14 chain: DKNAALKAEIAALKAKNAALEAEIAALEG

4H2438-AA = biological target: T15, 4H2438-AA; assay: two-hybrid library CCmax; settings: mean of both orientations
T15 chain: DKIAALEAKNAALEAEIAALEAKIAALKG

4H3865-AA = biological target: T16, 4H3865-AA; assay: two-hybrid library CCmax; settings: mean of both orientations
T16 chain: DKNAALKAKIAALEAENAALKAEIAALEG

4H3009-AA = biological target: T17, 4H3009-AA; assay: two-hybrid library CCmax; settings: mean of both orientations
T17 chain: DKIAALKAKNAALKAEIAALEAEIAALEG

4H3410-AA = biological target: T18, 4H3410-AA; assay: two-hybrid library CCmax; settings: mean of both orientations
T18 chain: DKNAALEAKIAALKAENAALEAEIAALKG

4H3395-AA = biological target: T19, 4H3395-AA; assay: two-hybrid library CCmax; settings: mean of both orientations
T19 chain: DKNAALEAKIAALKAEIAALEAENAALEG

4H710-AA = biological target: T20, 4H710-AA; assay: two-hybrid library CCmax; settings: mean of both orientations
T20 chain: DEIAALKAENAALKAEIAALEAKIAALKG

4H1864-AA = biological target: T21, 4H1864-AA; assay: two-hybrid library CCmax; settings: mean of both orientations
T21 chain: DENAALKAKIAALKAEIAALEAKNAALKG

4H909-AA = biological target: T22, 4H909-AA; assay: two-hybrid library CCmax; settings: mean of both orientations
T22 chain: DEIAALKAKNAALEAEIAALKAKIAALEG

4H2274-AA = biological target: T23, 4H2274-AA; assay: two-hybrid library CCmax; settings: mean of both orientations
T23 chain: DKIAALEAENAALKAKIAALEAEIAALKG

4H570-AA = biological target: T24, 4H570-AA; assay: two-hybrid library CCmax; settings: mean of both orientations
T24 chain: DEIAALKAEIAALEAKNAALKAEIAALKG

4H1842-AA = biological target: T25, 4H1842-AA; assay: two-hybrid library CCmax; settings: mean of both orientations
T25 chain: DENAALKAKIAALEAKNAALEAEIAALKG

4H310-AA = biological target: T26, 4H310-AA; assay: two-hybrid library CCmax; settings: mean of both orientations
T26 chain: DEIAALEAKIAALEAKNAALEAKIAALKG

4H2649-AA = biological target: T27, 4H2649-AA; assay: two-hybrid library CCmax; settings: mean of both orientations
T27 chain: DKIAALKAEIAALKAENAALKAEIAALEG

4H2473-AA = biological target: T28, 4H2473-AA; assay: two-hybrid library CCmax; settings: mean of both orientations
T28 chain: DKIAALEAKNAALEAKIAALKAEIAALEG

4H1597-AA = biological target: T29, 4H1597-AA; assay: two-hybrid library CCmax; settings: mean of both orientations
T29 chain: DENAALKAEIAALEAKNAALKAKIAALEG

4H930-AA = biological target: T30, 4H930-AA; assay: two-hybrid library CCmax; settings: mean of both orientations
T30 chain: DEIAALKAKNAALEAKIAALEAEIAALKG

4H797-AA = biological target: T31, 4H797-AA; assay: two-hybrid library CCmax; settings: mean of both orientations
T31 chain: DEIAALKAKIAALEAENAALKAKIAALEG

4H1877-AA = biological target: T32, 4H1877-AA; assay: two-hybrid library CCmax; settings: mean of both orientations
T32 chain: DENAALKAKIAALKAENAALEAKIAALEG

4H2253-AA = biological target: T33, 4H2253-AA; assay: two-hybrid library CCmax; settings: mean of both orientations
T33 chain: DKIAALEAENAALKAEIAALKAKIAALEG

4H536-AA = biological target: T34, 4H536-AA; assay: two-hybrid library CCmax; settings: mean of both orientations
T34 chain: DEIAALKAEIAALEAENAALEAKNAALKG

4H629-AA = biological target: T35, 4H629-AA; assay: two-hybrid library CCmax; settings: mean of both orientations
T35 chain: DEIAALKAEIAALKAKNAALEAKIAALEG

4H891-AA = biological target: T36, 4H891-AA; assay: two-hybrid library CCmax; settings: mean of both orientations
T36 chain: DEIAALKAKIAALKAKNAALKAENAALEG

4H3753-AA = biological target: T37, 4H3753-AA; assay: two-hybrid library CCmax; settings: mean of both orientations
T37 chain: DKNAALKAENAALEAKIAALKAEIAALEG

4H2330-AA = biological target: T38, 4H2330-AA; assay: two-hybrid library CCmax; settings: mean of both orientations
T38 chain: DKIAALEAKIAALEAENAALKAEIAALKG

4H2698-AA = biological target: T39, 4H2698-AA; assay: two-hybrid library CCmax; settings: mean of both orientations
T39 chain: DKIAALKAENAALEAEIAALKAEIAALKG

4H3381-AA = biological target: T40, 4H3381-AA; assay: two-hybrid library CCmax; settings: mean of both orientations
T40 chain: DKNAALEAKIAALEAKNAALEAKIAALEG

4H171-AA = biological target: T41, 4H171-AA; assay: two-hybrid library CCmax; settings: mean of both orientations
T41 chain: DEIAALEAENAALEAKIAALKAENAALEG

4H485-AA = biological target: T42, 4H485-AA; assay: two-hybrid library CCmax; settings: mean of both orientations
T42 chain: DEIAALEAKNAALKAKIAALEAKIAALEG

4H3016-AA = biological target: T43, 4H3016-AA; assay: two-hybrid library CCmax; settings: mean of both orientations
T43 chain: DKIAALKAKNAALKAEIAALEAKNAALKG

4H3590-AA = biological target: T44, 4H3590-AA; assay: two-hybrid library CCmax; settings: mean of both orientations
T44 chain: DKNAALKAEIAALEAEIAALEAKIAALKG

4H3130-AA = biological target: T45, 4H3130-AA; assay: two-hybrid library CCmax
T45 chain: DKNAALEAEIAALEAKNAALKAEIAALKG

4H1626-AA = biological target: T46, 4H1626-AA; assay: two-hybrid library CCmax; settings: mean of both orientations
T46 chain: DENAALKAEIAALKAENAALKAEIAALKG

4H2162-AA = biological target: T47, 4H2162-AA; assay: two-hybrid library CCmax; settings: mean of both orientations
T47 chain: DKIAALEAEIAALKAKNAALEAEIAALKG

4H2389-AA = biological target: T48, 4H2389-AA; assay: two-hybrid library CCmax; settings: mean of both orientations
T48 chain: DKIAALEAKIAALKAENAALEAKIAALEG

4H850-AA = biological target: T49, 4H850-AA; assay: two-hybrid library CCmax; settings: mean of both orientations
T49 chain: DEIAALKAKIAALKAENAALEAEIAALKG

4H1579-AA = biological target: T50, 4H1579-AA; assay: two-hybrid library CCmax
T50 chain: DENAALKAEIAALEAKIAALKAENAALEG

4H94-AA = biological target: T51, 4H94-AA; assay: two-hybrid library CCmax; settings: mean of both orientations
T51 chain: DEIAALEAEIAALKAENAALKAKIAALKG

4H2865-AA = biological target: T52, 4H2865-AA; assay: two-hybrid library CCmax
T52 chain: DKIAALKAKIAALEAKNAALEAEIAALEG

4H174-AA = biological target: T53, 4H174-AA; assay: two-hybrid library CCmax; settings: mean of both orientations
T53 chain: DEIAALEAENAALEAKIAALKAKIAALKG

4H3120-AA = biological target: T54, 4H3120-AA; assay: two-hybrid library CCmax; settings: mean of both orientations
T54 chain: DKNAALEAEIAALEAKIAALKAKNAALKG

DKIKQLKKKNEELKRKNWELKKKIEQLKQ [P2bH1]
interaction score (P9bH1): 0.693 | interaction score (P4bH1): -0.137 | interaction score (P2bH1): -0.432 | interaction score (P6bH1): -1.16 | interaction score (P8bH1): -0.331 | interaction score (P3bH1): -0.234 | interaction score (P7bH1): 0.231 | interaction score (P5bH1): -0.796

DENAALKAEIAALEAKIAALKAENAALEG [4H1579-AA]
interaction score (4H458-AA): -1.8 | interaction score (4H2725-AA): -1.31 | interaction score (4H2109-AA): 0.8 | interaction score (4H745-AA): 1.21 | interaction score (4H3165-AA): -1.86 | interaction score (4H3697-AA): -1.92 | interaction score (4H2438-AA): -1.18 | interaction score (4H3865-AA): -1.22 | interaction score (4H3009-AA): -2.01 | interaction score (4H3410-AA): -1.51 | interaction score (4H3395-AA): 0.656 | interaction score (4H710-AA): -1.33 | interaction score (4H1864-AA): 2.38 | interaction score (4H909-AA): -1.94 | interaction score (4H2274-AA): -1.24 | interaction score (4H570-AA): -0.453 | interaction score (4H1842-AA): -2.03 | interaction score (4H310-AA): -1.28 | interaction score (4H2649-AA): -1.11 | interaction score (4H2473-AA): -1.09 | interaction score (4H1597-AA): -0.651 | interaction score (4H930-AA): -1.7 | interaction score (4H797-AA): -1.46 | interaction score (4H1877-AA): -0.858 | interaction score (4H2253-AA): -1.23 | interaction score (4H536-AA): 0.42 | interaction score (4H629-AA): -1.42 | interaction score (4H891-AA): -1 | interaction score (4H3753-AA): 1.01 | interaction score (4H2330-AA): -1.81 | interaction score (4H2698-AA): -1.29 | interaction score (4H3381-AA): -1.48 | interaction score (4H171-AA): -1.67 | interaction score (4H485-AA): -0.986 | interaction score (4H3016-AA): 0.0969 | interaction score (4H3590-AA): 1.2 | interaction score (4H3130-AA): -1.12 | interaction score (4H1626-AA): -1.19 | interaction score (4H2162-AA): -1.63 | interaction score (4H2389-AA): -1.56 | interaction score (4H850-AA): -1.18 | interaction score (4H1579-AA): 0.482 | interaction score (4H94-AA): -1.21 | interaction score (4H2865-AA): -1.53 | interaction score (4H174-AA): -0.805 | interaction score (4H3120-AA): 0.595
